Experimental findings from article doi:10.1101/2023.03.13.532365 are described below.

For this assay, the target named is *DsCDTCM, exported bifunctional cyclohexadienyl dehydratase-chorismate mutase fusion enzyme of Duganella sacchari (Duganella sacchari). As to the kind of experiment: crystal structure.

The term stoichiometry N denotes the number of molecules, sites or subunits per partner or assembly.

In turn, “*DsCDTCM, exported bifunctional cyclohexadienyl dehydratase-chorismate mutase fusion enzyme of Duganella sacchari” displayed a stoichiometry N of 2.
